Paper doi:10.1101/2022.06.30.498311 (bioRxiv, 2022)

Target: the molecule itself
Assay: crystal structure

B1: Sul1 (enzyme, UniProt P0C002 1-269, looked up)
chain: MVTVFGILNLTEDSFFDESRRLDPAGAVTAAIEMLRVGSDVVDVGPAASHPDARPVSPADEIRRIAPLLDALSDQMHRVSIDSFQPETQRYALKRGVGYLNDIQGFPDPALYPDIAEADCRLVVMHSAQRDGIATRTGHLRPEDALDEIVRFFEARVSALRRSGVAADRLILDPGMGFFLSPAPETSLHVLSNLQKLKSALGLPLLVSVSRKSFLGATVGLPVKDLGPASLAAELHAIGNGADYVRTHAPGDLRSAITFSETLAKFRSR
- binding result: binds
